We go through 6 compounds from PMC8876964 (Pharmaceuticals, 2022).

A short description of data set [1]: Biodistribution in normal CD-1 mice. The data set is classed as in vivo. The settings on record: mouse, iv, total radioactivity, 0.37 MBq i.v., n = 4–5, mean ± SD. As to the method:
The comparison of non-albumin binding and albumin binding peptides were evaluated in CD-1 mice at 1, 4, 24, and 48 h. ^177Lu-labeled peptides were prepared at the specific activity of 10 MBq/nmol. Mice (n = 4–5) were intravenously injected with 0.37 MBq (10 µCi) of respective radioligands diluted in 100 μL saline and sacrificed at specified time points. Selected organs were collected, weighed, and counted for activity. The results were reported as the percentage of the injected radioactivity per gram of tissue mass (% ID/g) and the radioactivity was calibrated using a known standard.

Data set [2] in a line: Biodistribution in mice bearing BxPC-3 tumor xenografts. It is filed as in vivo. Particulars: athymic nude, mouse, iv, total radioactivity, BxPC-3 tumor mice, 0.37 MBq i.v.; for tissue uptake at 1 h: 1 h p.i.; for tissue uptake at 48 h: 48 h p.i. As to the method: Animals were supplied from Charles River Laboratories (Wilmington, MA, USA), and were handled in compliance with the Guidelines for Care and Use of Research Animals established by the Division of Comparative Medicine and the Animal Studies Committee of Washington University School of Medicine. Biodistribution studies were conducted in athymic nude mice bearing subcutaneous BxPC-3 tumors. Tumors were implanted on the right flank with 5 × 10^6 cells about 4 weeks before the performance of the experiments. Biodistribution studies were performed when the tumors reached approximately 5–7 mm in diameter. […] Tissues of interest (blood, lung, liver, spleen, kidney, muscle, heart, bone, and tumor) were collected and weighed, and the radioactivity was measured using a gamma counter. The results were expressed as the percentage of injected dose per gram of tissue (%ID/g).

Data set [3] concerns BxPC-3 tumors. Description: Therapy studies in BxPC-3 tumor-bearing mice. It is filed as in vivo, athymic nude mice. As to the method: Therapy studies were conducted in athymic nude mice bearing BxPC-3 tumors when the tumor volume reached about 100 mm^3. […] Tumor volumes and body weights were monitored three times a week. Individual tumor size was calculated using the formula (length × width × width)/2. The mice were euthanized when the tumor reached 1500 mm^3, ulceration of >4 mm was present, or significant stress due to weight loss. […] The doses were administered via tail vein and tumor size and mouse weights were recorded three times a week. Tumor volumes were plotted versus time to determine tumor growth inhibition.

Data set [4] deals with DX3puroβ6 tumor. The settings on record: mouse, in vivo; cited from earlier work.
The nature of data set [5]: PET/CT imaging of BxPC-3 tumor-bearing mice. The settings on record: athymic nude, mouse, iv, 3.7 MBq, total radioactivity. The data set is classed as in vivo. As to the method: For blocking study, excess of unlabeled peptides was administered 1–2 min before radiotracer injection. The PET scans were acquired for 20 min on an Inveon small animal PET/CT scanner (Siemens Medical Solutions, Malvern, PA, USA). Static images were reconstructed with the maximum a posteriori (MAP) reconstruction algorithm and corrected for decay. Image analysis was performed using the Inveon Research Workstation image display software (Siemens). Regions of interest (ROI) were selected based on co-registered anatomical CT images, and the average or maximum standard uptake value (SUV) was calculated as the mean or maximum regional radioactivity concentration (nCi/cc) x animal weight (g)/decay-corrected amount of injected dose (nCi).

The subject of data set [6] is serum albumin. The settings on record: cited from earlier work.
The mark [7] stands for this setting: blood, n = 4–5, mean ± SD, read-out: blood uptake.
The mark [8] stands for this setting: n = 4–5, mean ± SD, read-out: tumor uptake.

Where two headings read alike, the source gives them in different places.

Compound `CC(C)C[C@H](NC(=O)[C@H](CC(=O)O)NC(=O)CNC(=O)[C@H](CCCNC(=N)N)NC(=O)[C@H](CC(C)C)NC(=O)[C@H](CC(N)=O)NC(=O)[C@@H]1CCCN1C(=O)[C@@H](NC(=O)[C@H](C)NC(=O)[C@H](CC(N)=O)NC(=O)CCOCCOCCOCCOCCOCCOCCOCCOCCOCCOCCOCCOCCOCCOCCOCCOCCOCCOCCOCCOCCOCCOCCOCCOCCOCCOCCOCCOCCNC(=O)CCSC1CC(=O)N(CCC(=O)NCCNC(=O)[C@H](CCCCNC(=O)CN2CCN(CC(=O)O)CCN(CC(=O)O)CCN(CC(=O)O)CC2)NC(=O)c2ccc(-c3ccc(N=Nc4ccc5c(S(=O)(=O)O)cc(S(=O)(=O)O)c(N)c5c4O)cc3)cc2)C1=O)C(C)C)C(=O)N[C@@H](CCC(N)=O)C(=O)N[C@H](C(=O)N[C@@H](CC(C)C)C(=O)N[C@@H](C)C(=O)N[C@@H](CCC(N)=O)C(=O)N[C@@H](CCCCN)C(=O)N[C@H](C(=O)N[C@@H](C)C(=O)N[C@@H](CCCNC(=N)N)C(=O)N[C@H](C(=O)NCCOCCOCCOCCOCCOCCOCCOCCOCCOCCOCCOCCOCCOCCOCCOCCOCCOCCOCCOCCOCCOCCOCCOCCOCCOCCOCCOCCOCCC(N)=O)[C@@H](C)O)C(C)C)C(C)C` (stereo partly shown) [[^177Lu]Lu-EB-DOTA-(PEG28)2-A20FMDV2, metal not drawn] gave a % intact in human serum greater than 90%. Also, in data set [1] (blood), the tissue uptake at 1 h was 5.36 ± 1.06 %ID/g. Also, the tissue uptake at 48 h in data set [1] (blood, 48 h p.i., read-out: blood uptake) amounted to 0.41 ± 0.03 %ID/g. The tissue uptake at 48 h in data set [1] (kidney, 48 h, read-out: kidney uptake) was 44.3 ± 5.13 %ID/g. Further, in data set [2] (setting [7]), the tissue uptake at 1 h turned out to be 4.8 ± 0.69 %ID/g and the tissue uptake at 48 h is 0.28 ± 0.01 %ID/g. The tissue uptake at 4 h in data set [2] (blood, 4 h, n = 4–5, mean ± SD) came to 1.23 ± 0.3 %ID/g. Moreover, in data set [2] (setting [8]), the tissue uptake at 1 h stood at 5.2 ± 1.02 %ID/g and the tissue uptake at 48 h amounted to 4.29 ± 0.78 %ID/g. Further, in data set [2] (lung, liver, spleen, muscle, heart, bone, all time points (1, 4, 24, 48 h), read-out: uptake in normal organs such as lung, liver, spleen, muscle, heart, and bone), the tissue uptake is less than 4 %ID/g. Moreover, the “tumor volumes in comparison to the control group” value in data set [3] (single dose of 37 MBq, BxPC-3 tumor-bearing mice, n = 8, p < 0.001) was “significantly reduced”. In addition, the mortality entry in data set [3] (single dose of 37 MBq, two weeks after radiotracer injection) is recorded as “death of all mice”.
Take `CC(C)C[C@H](NC(=O)[C@H](CC(=O)O)NC(=O)CNC(=O)[C@H](CCCNC(=N)N)NC(=O)[C@H](CC(C)C)NC(=O)[C@H](CC(N)=O)NC(=O)[C@@H]1CCCN1C(=O)[C@@H](NC(=O)[C@H](C)NC(=O)[C@H](CC(N)=O)NC(=O)CCOCCOCCOCCOCCOCCOCCOCCOCCOCCOCCOCCOCCOCCOCCOCCOCCOCCOCCOCCOCCOCCOCCOCCOCCOCCOCCOCCOCCNC(=O)CN1CCN(CC(=O)O)CCN(CC(=O)O)CCN(CC(=O)O)CC1)C(C)C)C(=O)N[C@@H](CCC(N)=O)C(=O)N[C@H](C(=O)N[C@@H](CC(C)C)C(=O)N[C@@H](C)C(=O)N[C@@H](CCC(N)=O)C(=O)N[C@@H](CCCCN)C(=O)N[C@H](C(=O)N[C@@H](C)C(=O)N[C@@H](CCCNC(=N)N)C(=O)N[C@H](C(=O)NCCOCCOCCOCCOCCOCCOCCOCCOCCOCCOCCOCCOCCOCCOCCOCCOCCOCCOCCOCCOCCOCCOCCOCCOCCOCCOCCOCCOCCC(N)=O)[C@@H](C)O)C(C)C)C(C)C` [metal not drawn]: the tissue uptake at 1 h in data set [1] (blood) was found to be 0.11 ± 0.04 %ID/g. Moreover, the body weight change result in data set [3] (27.8 MBq, n = 8, during the course of the study) is listed as “no significant weight loss”. Also, the “tumor inhibition in comparison to control group” value in data set [3] (27.8 MBq, n = 8, until day 23 (p < 0.001 for the IBA peptide)) is reported as “did not show significant tumor growth inhibition”.
Consider NAVPNLRGDLQVLAQKVART [A20FMDV2], for which, in data set [4], the tumor uptake was 0.66 ± 0.09 % ID/g.
On to `CC(C)C[C@H](NC(=O)[C@H](CC(=O)O)NC(=O)CNC(=O)[C@H](CCCNC(=N)N)NC(=O)[C@H](CC(C)C)NC(=O)[C@H](CC(N)=O)NC(=O)[C@@H]1CCCN1C(=O)[C@@H](NC(=O)[C@H](C)NC(=O)[C@H](CC(N)=O)NC(=O)CCOCCOCCOCCOCCOCCOCCOCCOCCOCCOCCOCCOCCOCCOCCOCCOCCOCCOCCOCCOCCOCCOCCOCCOCCOCCOCCOCCOCCNC(=O)CN1CCN(CC(=O)O)CCN(CC(=O)O)CCN(CC(=O)O)CC1)C(C)C)C(=O)N[C@@H](CCC(N)=O)C(=O)N[C@H](C(=O)N[C@@H](CC(C)C)C(=O)N[C@@H](C)C(=O)N[C@@H](CCC(N)=O)C(=O)N[C@@H](CCCCN)C(=O)N[C@H](C(=O)N[C@@H](C)C(=O)N[C@@H](CCCNC(=N)N)C(=O)N[C@H](C(=O)NCCOCCOCCOCCOCCOCCOCCOCCOCCOCCOCCOCCOCCOCCOCCOCCOCCOCCOCCOCCOCCOCCOCCOCCOCCOCCOCCOCCOCCC(N)=O)[C@@H](C)O)C(C)C)C(C)C` [[^68Ga]Ga-DOTA-(PEG28)2-A20FMDV2, metal not drawn], for which the SUV at 1 h was 1.71 ± 0.04 SUV in data set [5] (mice receiving blocking agent (excess unlabeled peptide 1–2 min before), 1 h after 3.7 MBq i.v., n = 3, read-out: tumor SUVmax); 1.22 ± 0.12 SUV in data set [5] (mice receiving blocking agent (excess unlabeled peptide 1–2 min before), 1 h after 3.7 MBq i.v., n = 3, read-out: tumor SUVmean); 3.85 ± 1.06 SUV in data set [5] (non-block mice, 1 h after i.v. injection of 3.7 MBq, n = 3, read-out: tumor SUVmax); 2.77 ± 0.38 SUV in data set [5] (non-block mice, 1 h after i.v. injection of 3.7 MBq, n = 3, read-out: tumor SUVmean).
Turning to `Cc1cc(-c2ccc(/N=N/c3ccc4c(S(=O)(=O)O)cc(S(=O)(=O)O)c(N)c4c3O)c(C)c2)ccc1/N=N/c1ccc2c(S(=O)(=O)O)cc(S(=O)(=O)O)c(N)c2c1O` [Evans Blue], the “IC50 of reversible binding to serum albumin” value in data set [6] was “micromolar range”.
Take `O=C(O)CCCc1ccc(I)cc1` [4-(p-iodophenyl)butyric acid]: the “non-covalent binding with serum albumin” value in data set [6] is given as “micromolar range”.
